{"source": "patent US20180000768A1", "about": "“INTESTINAL FXR AGONISM ENHANCES GLP-1 SIGNALING TO RESTORE PANCREATIC BETA CELL FUNCTIONS” (Salk Institute for Biological Studies, priority 2015, published 2018)", "molecules": {"B1": {"name": "FGF15: FGF15 protein injected in ob/ob mice or applied to islets (protein, UniProt O35622 26-218, looked up)", "Fibroblast growth factor 15": "RPLAQQSQSVSDEDPLFLYGWGKITRLQYLYSAGPYVSNCFLRIRSDGSVDCEEDQNERNLLEFRAVALKTIAIKDVSSVRYLCMSADGKIYGLIRYSEEDCTFREEMDCLGYNQYRSMKHHLHIIFIQAKPREQLQDQKPSNFIPVFHRSFFETGDQLRSKMFSLPLESDSMDPFRMVEDVDHLVKSPSFQK"}}, "key": {"ob/ob mice": {"tested_on": "ob/ob mice", "assay": "gene expression (RNA-Seq, QPCR) in tissues of treated ob/ob mice", "type": "in vivo, mouse", "conditions": "FGF15 injection", "protocol": "Total RNA was isolated from cell pellets treated with RNAlater using the RNA mini kit (Qiagen) and treated with DNaseI (Qiagen) for 30 minutes at room temperature. Sequencing libraries were prepared from 100-500 ng total RNA using the TruSeq RNA Sample Preparation Kit v2 (Illumina) according to the manufacturer's protocol. Briefly, mRNA was purified, fragmented, and used for first-, then second-strand cDNA synthesis followed by adenylation of 3′ ends. Samples were ligated to unique adapters and subjected to PCR amplification. Mulitplexed libraries were then validated using the 2100 BioAnalyzer (Agilent), normalized, and pooled for sequencing. RNA-Seq libraries prepared from two biological replicates for each experimental condition were sequenced on the Illumina HiSeq 2500 using bar-coded multiplexing and a 100 bp read length.\nImage analysis and base calling were performed with Illumina CASAVA-1.8.2. This yielded a median of 29.9M usable reads per sample. Short read sequences were mapped to a UCSC mm9 reference sequence using the RNA-seq aligner STAR. Known splice junctions from mm9 were supplied to the aligner and de novo junction discovery was also permitted. […] Transcript expression was calculated as gene-level relative abundance in fragments per kilobase of exon model per million mapped fragments and employed correction for transcript abundance bias. […]"}, "isolated islets": {"tested_on": "isolated islets", "assay": "gene expression after direct ex vivo treatment of isolated islets", "type": "cell-based, mouse", "conditions": "24 hours ex vivo, XL335 1 μM, Fex 1 μM", "protocol": "Leptin-deficient ob/ob mice were treated daily with vehicle, Fex, or the analogue Fex-D (50 mg/kg) via P.O. for 14 days (A) Chemical structures of fexaramine and Fex-D (B) Schematic of the experimental design (C) Serum glucose levels (D) Glucose tolerance test (E) Insulin secretion in vivo (F) GLP-1 secretion in vivo (G) Heatmap showing hierarchal clustering of gene expression changes in islet induced by Fex (100 mg/kg, 4 wks) and FexD (50 mg/kg, 2 weeks) treatment in ob/ob mice (in vivo); by treatment of islets with XL335 (1 μM), Fex (1 μM), mFgf15 and hFgf19 (24 hours ex vivo); and mFgf15 (0.15 mg/kg, 2 weeks) and INT777 (Tgr5, 60 mg/kg, 4 weeks) treatment of ob/ob mice (in vivo). Gene expression was measured by RNA-Seq and changes are expressed as Z-score. (H) Ven diagram of changes in gene expression in pancreatic islets induced by FEX (100 mg/kg for 5 weeks) and FEX-D (50 mg/kg for 14 days). […] Data represent the mean±STD. Statistical analysis was performed with the Student's t test. *p<0.05, **p<0.01.\nNext, primary islets were isolated from mice treated by Fex-D to compare gene expression changes."}, "[1]": {"tested_on": "Leptin-deficient ob/ob mice", "assay": "metabolic phenotype and glucose homeostasis of treated ob/ob mice", "type": "in vivo, mouse", "conditions": "FGF15 treatment for 2 weeks", "protocol": "Leptin-deficient ob/ob mice were purchased from Jackson laboratory (stock no. 000632). Each mouse consumed 100 mg per kg of body weight Fex (in corn oil) per day by oral gavage for 5 weeks. For in vivo analog study, each mouse consumed 50 mg per kg of body weight Fex-D (in corn oil) per day by oral gavage for 14 days. For GLP-1 receptor antagonist study, each mouse was daily treated with 100 μg per kg of body weight Exendin 9-39 amide (Abcam) via intraperitoneal injection for 2 weeks. For INT-777 study, each mouse was daily gavaged with 60 mg per kg of body weight INT-777 (in corn oil) for 5 weeks. […] Core body temperature was measured with a clinical rectal thermometer (Thermalert model TH-5; Physitemp). […] Tail blood was drawn at indicated time intervals, and blood glucose level was measured with a One Touch Ultra glucometer (LifeScan). Body composition was measured with Echo MRI-100 body composition analyzer (Echo Medical Systems). […]\nReal-time metabolic analyses were conducted in a Comprehensive Lab Animal Monitoring System (Columbus Instruments). CO2 production, O2 consumption, RQ (relative rates of carbohydrate versus fat oxidation) and ambulatory counts were determined for 4 consecutive days and nights, with at least 24-h for adaptation before data recording. […]"}}}
{"molecule": "B1", "values": [{"measurement": "reg family gene expression in islets", "setting": "ob/ob mice", "result": "upregulated"}, {"measurement": "transcriptional changes seen in islets in vivo with Fex and Fex-D", "setting": "isolated islets", "result": "not observed"}, {"measurement": "blood glucose levels", "setting": "[1]", "result": "significantly reduced"}, {"measurement": "glucose uptake in the skeletal muscle", "setting": "[1]; soleus", "result": "without affecting"}]}
